Reference: PMC6529637

Biological target: BamA (E. coli (endogenous in MC4100-derived strains)), P0A940
Test: cross-linking; in vivo formaldehyde cross-linking (0.7%, 12 min, room temperature, cells in PBS pH 7.6), SDS-PAGE and immunoblot with anti-RcsF and anti-BamA; strains grown in glucose minimal medium at 30°C; backgrounds: WT, ΔbamE, bamA101, bamB::Kan, bamD(R197L), bamD(L13P), bamA(F494L) and combinations
Details: remark: other sources report otherwise

- fraction of BamA cross-linked to RcsF (ΔbamE strain): 30%
B1: regulator of capsule synthesis protein F (RcsF), P69411 16-134 (natural protein)
chain: CSMLSRSPVEPVQSTAPQPKAEPAKPKAPRATPVRIYTNAEELVGKPFRDLGEVSGDSCQASNQDSPPSIPTARKRMQINASKMKANAVLLHSCEVTSGTPGCYRQAVCIGSALNITAK
modifications: here or on the partner: lipid moiety on the N-terminal domain (lipoprotein)
